In patent US8715697B2, “Genes associated with Leishmania parasite virulence” (priority 2001, dated 2014):

How the values were obtained:
[1] = tested on: mononuclear cells (PBMC); assay: Cytokines (IFN-β, IL-4) in PBMC culture supernatants, ELISA; type: cell-based, human; settings: 5 μg/ml LmPDI, 48 hours, small sample of individuals
Experimental: Cytokines (IFN-β, IL-4) in PBMC culture supernatants were induced by incubating mononuclear cells for 48 hours with the same concentration of LmPDI and assaying by means of an ELISA test using human anti-IL-4 and anti-IFN-β monoclonal antibodies (Pharmingen, San Diego, Calif.).

[2] = tested on: mononuclear cells; assay: In vitro proliferation of mononuclear cells from individuals of a ZCL region, tritiated thymidine incorporation; type: cell-based, human; settings: 5 μg/ml LmPDI, 5 days of culture, immune individuals (positive SLA test); FIG. 8
Experimental: The lymphomonocytary cells were recovered, washed by 3 successive centrifuge runs with RPMI-PS/Glu medium (30 ml then twice 10 ml) then counted and incubated at a concentration of 10^6 cells/ml of medium in the presence or absence of a concentration of 5 μg/ml of LmPDI. After 5 days of culture, lymphocyte stimulation was estimated by incorporating tritiated thymidine. The result is expressed in CPM.
L. major LmPDI, because of its high expression during the infectious stage of the parasite, could be a target for a cellular immune response. In order to verify the pertinence of this hypothesis, the capacity of LmPDI to induce a cellular immune response was evaluated by means of experiments on the proliferation of mononuclear cells obtained from individuals having active lesions or ZCL antecedents.
This study was carried out in 37 individuals living at El Guettar (southern Tunisia) for whom the results of the cellular proliferation test against total antigens from the parasite (SLA, a test indicating prior contact with the parasite) was available. These individuals were divided up as follows:
Mononuclear cells comprising lymphocytes and monocytes were separated from peripheral blood by centrifuging on a Ficoll/Hypaque gradient (Pharmacia, Uppsala, Sweden).

[3] = tested on: scrambled RNase A; assay: Reactivation of scrambled RNase A in the presence of recombinant LmPDI protein (PDI activity); type: biochemical; settings: 1.4 μM recombinant LmPDI, 30 minutes at 25° C., compared with bovine PDI; FIG. 4
Experimental: Scrambled RNase A (8 μM) was incubated in a buffer containing 4.5 mM (cCMP), 1 mM glutathione GSH, 0.2 mM glutathione disulfide GSSH, 2 mM EDTA and 100 mM Tris-HCl pH 8 in the presence of bovine serum albumin (BSA) (1.4 μM) as a negative control, bovine protein disulfide-isomerase (1.4 μM) as the positive control, or recombinant LmPDI (1.4 μM) for 30 minutes at 25° C. RNase A reactivation was determined by measuring the RNase A activity at 296 nm every 5 minutes for 30 minutes (Lyles and Gilbert, 1991).
20 mg of purified ribonuclease (RNase A) was scrambled at ambient temperature for 18 hours in a buffer containing 0.15 M of DTT, 6 M of guanidine-HCl and 0.1 M of Tris-HCl at a pH of 8.6 before being purified on a Sephadex G-25 column equilibrated in 0.01 M HCl. The concentration of scrambled RNase A fractions was determined using an extinction coefficient of 9200 M^−1 cm^−1 at 275 nm. Thu fractions were stored at −80° C. for two weeks.
Scrambled RNase A (8 μM) was incubated in a buffer containing 4.5 mM cCMP, 1 mM glutathione GSH, 0.2 mM glutathione disulfide GSSH, 2 mM EDTA and 100 mM of Tris-HCl pH 8 in the presence of bovine serum albumin (BSA) (1.4 μM) as a negative control, bovine protein disulfide-isomerase (1.4 μM) as a positive control, or recombinant LmPDI (1.4 μM) for 30 minutes at 25° C. […]

B1: LmPDI: recombinant protein disulfide isomerase of Leishmania major, SEQ ID No: 3, produced in E. coli; vaccine candidate (protein)
chain: MAEVQVATKDNFDKVVIGDLTLVKFYAPWCGHCKTLAPEFVKAADMLAGIATLAEVDCTKEESLAEKYEIKGFPTLYIFRNGEKVKIYDGPRTAAGIASYMKAHVGPSMKAISTAEELEELKKETFPVCVVKTASTDSEMASMITKVADSLRSQMNFVLVTDAAISPNDAMESVTVYRKNAEREAYTGATPMTAESVKSFLTSAVLDYFGELGQESFQKYMEANKDKPLGWVFIDKNTDSALKGSLVAVAEKYRSQVLLTYIDGDQYRPVSRQLGIPEDAKFPAFVVDFERRHHVMGTDTPVTSESVAAFVEKYVKGETKQTVMSDAIPAKETVNGLTTVVGQTFAKYTDGTQNVMLLFYAPWCGHCKKLHPVYDKVAKSFESENVIIAKMDATTNDFDREKFEVSGFPTIYFIPAGKPPIVYEGGRTADEIQVFVKSHLTASAAPSGGPSGNSEEEDLLEHHHHHH
modifications: His6 tag
notes: vaccine candidate
- IFN-β in the supernatant from stimulated cells [1]: significant amounts
- IL-4 in the supernatant from stimulated cells [1]: absence
- proliferation of mononuclear cells [2]: significant proliferation
- restoration of RNase A activity [3]: capable of restoring RNase A activity
